Positions count from the first letter of the chain named.
T1: hSEMA4D ECD-His (His-tagged human SEMA4D protein extracellular domain, Met22-Arg734) (human, UniProt Q92854 22-734)
T1 construct: Expressed in CHO-S cells, purified on Ni column; also called protein immunogen; immunogen A; not shown: His tag of the pCP vector
T1 sequence: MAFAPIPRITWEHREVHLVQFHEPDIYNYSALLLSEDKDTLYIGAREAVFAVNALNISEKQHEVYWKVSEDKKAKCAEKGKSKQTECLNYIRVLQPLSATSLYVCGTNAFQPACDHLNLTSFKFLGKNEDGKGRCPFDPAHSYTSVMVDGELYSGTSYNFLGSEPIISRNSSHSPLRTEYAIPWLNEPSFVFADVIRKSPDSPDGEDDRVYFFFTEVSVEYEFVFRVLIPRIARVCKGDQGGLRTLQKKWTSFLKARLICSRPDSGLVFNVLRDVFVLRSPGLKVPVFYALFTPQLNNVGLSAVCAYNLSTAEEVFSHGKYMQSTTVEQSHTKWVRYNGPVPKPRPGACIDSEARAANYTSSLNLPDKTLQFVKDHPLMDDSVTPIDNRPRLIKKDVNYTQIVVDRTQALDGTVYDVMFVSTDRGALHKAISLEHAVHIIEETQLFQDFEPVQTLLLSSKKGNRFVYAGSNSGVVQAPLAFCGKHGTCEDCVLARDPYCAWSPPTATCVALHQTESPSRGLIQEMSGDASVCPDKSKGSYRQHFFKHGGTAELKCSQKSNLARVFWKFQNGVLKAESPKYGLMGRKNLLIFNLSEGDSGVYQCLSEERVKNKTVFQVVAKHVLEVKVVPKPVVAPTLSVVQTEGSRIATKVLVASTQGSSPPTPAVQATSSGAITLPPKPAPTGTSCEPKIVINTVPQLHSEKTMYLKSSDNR

T2: human SEMA4D, full length, on CHO-K1 cells (CHO-K1 hSEMA4D) (human, UniProt Q92854 22-862)
T2 construct: whole, on cells; also called human SEMA4D recombinant cells
T2 sequence (looked up): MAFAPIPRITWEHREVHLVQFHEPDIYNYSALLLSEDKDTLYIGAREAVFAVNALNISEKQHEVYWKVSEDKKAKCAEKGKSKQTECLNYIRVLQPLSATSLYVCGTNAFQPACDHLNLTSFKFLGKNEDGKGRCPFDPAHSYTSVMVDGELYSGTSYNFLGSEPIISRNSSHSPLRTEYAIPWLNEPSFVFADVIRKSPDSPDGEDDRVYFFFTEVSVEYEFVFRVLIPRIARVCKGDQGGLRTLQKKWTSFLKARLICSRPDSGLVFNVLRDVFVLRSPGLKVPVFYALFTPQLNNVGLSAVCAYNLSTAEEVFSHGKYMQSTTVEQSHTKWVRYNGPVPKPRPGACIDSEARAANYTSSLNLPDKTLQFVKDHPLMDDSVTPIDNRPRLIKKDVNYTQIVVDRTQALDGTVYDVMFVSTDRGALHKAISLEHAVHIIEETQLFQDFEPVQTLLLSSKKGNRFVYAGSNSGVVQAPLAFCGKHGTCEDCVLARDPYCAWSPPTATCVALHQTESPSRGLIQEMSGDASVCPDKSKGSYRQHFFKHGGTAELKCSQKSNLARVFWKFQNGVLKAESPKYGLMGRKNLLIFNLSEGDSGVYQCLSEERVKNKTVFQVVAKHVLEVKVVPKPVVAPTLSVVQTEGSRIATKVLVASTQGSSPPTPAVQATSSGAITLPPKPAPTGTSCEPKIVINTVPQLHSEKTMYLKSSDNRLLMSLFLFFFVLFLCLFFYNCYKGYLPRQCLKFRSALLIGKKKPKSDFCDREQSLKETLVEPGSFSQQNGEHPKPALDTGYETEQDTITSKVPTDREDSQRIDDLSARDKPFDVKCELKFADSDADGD

B1: 37C4F7 (antibody, V domains shown)
VH: EFQLQQSGPEVVKPGASVKISCKASGYSFTDYNMNWMKQSKGKSLEWIGVINPNYGTTTYNQNFKGKATLTVDQSSSTAYMQLNSLTSEDSAVYYCARDMYYVYAYYTMDYWGQGTSVTVSS
VL: DVVMTQTPLSLPVSLGDQASISCRSSQSLVHSNGHTYLHWYLQRPGQSPTLLIYKVSNRFSGVPDRFSGSGSGTDFTLKISRVEAEDLGVYFCSQGTHVPWTFGGGTKLEIK
notes: Mouse monoclonal antibody purified from hybridoma supernatant on protein A
B2: 38H2E3 (antibody, V domains shown)
VH: B1 VH with N52S, N54D, G66D, R98K, Q114H
VL: B1 VL with F67V, W101R
notes: as for B1
B3: 32C8F10 (antibody, V domains shown)
VH: EVQLQQSGAELVRPGASVKLSCTASGFNIKDEYIHWVKQRPEQGLEWIGWIDPANGHTEYASRFQAKATITADTSSNTAYLQLSSLTSEDTAVYYCTTGDYDGFAYWGQGTLVTVST
VL: QIVLTQSPAIMSASPGEKVTISCSARSSVSYMYWYQQKPGSSPKPWIYRTSNLASGVPARFSGSGSGTSYSLTISSMEAEDAATYYCQHYHTYPYTFGGGTKLEIK
notes: as for B1
B4: 31G10C5 (antibody, V domains shown)
VH: B3 VH with E32D, T58I, R63N, A105T
VL: B3 VL
notes: as for B1
B5: 31C11G2 (antibody, V domains shown)
VH: B3 VH with A105V
VL: B3 VL with S22F
notes: as for B1
B6: 37F11F9 (antibody, V domains shown)
VH: EVQLQQSGPVLVKPGASVKMSCKASGYTFTDYYMNWVKQSHGKSLEWIGLINPYSGGSTFNQKFKAKATLTVDKSSSSAYMDLNSLTSEDSAVYYCARVGDGYYGVTHGMDYWGQGTSVTVSS
VL: DIVMTPSQKFMSTTVGDRVSITCKASQNVGTAVAWYQQKPGQSPTILIYSASNRYTGVPDRFTGSGSGTDFTLTISNMKSEDLADYFCQQYYIYPFTFAAGTKLELK
notes: as for B1
B7: 42B7G2 (antibody, V domains shown)
VH: QVQLQQSGAELARPGASVKLSCKASGYTFTDYGISWVKQRTGQGLEWIGEIYLRNDNSYYNEKFKGKATLTADKSSNTAYMELRSLTSEDSAVYFCARWGDHGNNYEDAMDYWGQGTSVTVSS
VL: DIVLTQSPASLAMSLGKRATISCRASESVSIIGSNLIHWYQQKPGQPPKLLIYHASNLETGVPARFSGSGSRTDFTLTIDPVEEDDVAIYYCLQSRKVPYTFGGGTKLEIK
notes: as for B1

What follows are binders tested against T1, hSEMA4D ECD-His (His-tagged human …) (assay: ELISA, coated hSEMA4D ECD-His; Ab 1.33 nM).
Procedure: (§1) First, hSEMA4D ECD-His was diluted with PBS to a final concentration of 1.0 μg/mL, and then was added to a 96-well ELISA plate, 100 μL per well, sealed with plastic film and incubated overnight at 4° C. On the next day, the plate was washed with a plate washing solution, that is, PBS buffer containing 0.05% (v/v) Tween20, for 4 times, and added with blocking solution, that is, PBS buffer containing 0.05% (v/v) Tween20 and 2% (w/w) BSA, blocked at 37° C. for 1 hour. The blocking solution was poured out and the plate was washed 4 times with the plate washing solution. 100 μL of the purified leading antibodies obtained in Examples 1 and 2 was added to each well. After incubation at 37° C. for 1 hour, the plate was washed 4 times with a plate washing solution. 100 μL of horseradish peroxidase (HRP) labeled secondary antibody (purchased from Sigma) was added at a dilution of 1:10000 to each well, and the plate was incubated at 37° C. for 1 hour, and washed 4 times with a plate washing solution. 100 μL TMB substrate was added to each well, and the plate was incubated at room temperature for 5 minutes, and added with 100 μL stop solution (1.0N HCl) to each well. A microplate reader (SpectraMax M5e, purchased from Molecular Device) was used to read the A450 nm value. […] Wherein, the data in the table was the OD450 nm value.

OD450 nm | Binder
0.91 | B1
1.1 | B2
1.87 | B3
1.52 | B4
1.67 | B5
1.39 | B6
1.87 | B7

What follows are binders tested against T1, hSEMA4D ECD-His (His-tagged human …) (assay: ELISA, coated hSEMA4D ECD-His; Ab 0.0107 nM).
Procedure: as §1

OD450 nm | Binder
0.0864 | B1
0.0878 | B2
0.207 | B3
0.197 | B4
0.337 | B5
0.131 | B6
0.25 | B7

What follows are binders tested against T2, human SEMA4D, full length, on CHO-K1 … (assay: FACS, CHO-K1 hSEMA4D cells; Ab 0.00427 nM).
Procedure: The medium was aspirated, the cells were washed once with PBS buffer (purchased from Invitrogen), and then treated with cell dissociation fluid (TrypLE™ Express Enzyme, purchased from Life technology), and the cells were collected. After the cells counted, the cells were washed once with PBS phosphate buffer, and diluted to 3×10⁶ cells per milliliter, and added to the 96-well FACS reaction plate as 100 μL per well. 2% (w/w) fetal calf serum was added to PBS phosphate buffer as FACS buffer, with which the cells were washed once by centrifugation at 2000 rpm 4° C. 100 μL of diluted and purified leading antibodies was added to each well and the plate was incubated for 1 hour on ice. […] Cells were washed 2 times by centrifugation with FACS buffer. The cells were suspended with 200 μL of FACS buffer, and FACS (FACS Verse, purchased from BD) was used to detect and analyze the results.

MFI | Binder
45.4 | B1
45.4 | B2
86.2 | B3
85.5 | B4
87.3 | B5
51 | B6
68.9 | B7

The binders below were run against T3, monkey SEMA4D, full length, on CHO-K1 cells (CHO-K1 cSEMA4D) (monkey) (assay: FACS, CHO-K1 cSEMA4D cells; Ab 66.7 nM).
T3 construct: whole, on cells; also called monkey SEMA4D recombinant cells
Procedure: After the cells were counted, they were diluted with PBS to 2×10⁶ cells per milliliter. After washing, 100 μL of diluted and purified leading antibodies was added to each well and the plate was incubated for 1 hour on ice. […] Cells were washed 2 times by centrifugation with FACS buffer. The cells were suspended with 200 μL of FACS buffer, FACS (FACS Verse, purchased from BD) was used to detect and analyze the results.

MFI | Binder
2900 | B1
2890 | B2
5780 | B3
4600 | B4
4370 | B5
2520 | B6
2670 | B7

Reference: patent US20220073608A1 (JIANGSU HUAIYU PHARMACEUTICAL, published 2022)
